Reference: patent US20240034757A1 (OXFORD UNIVERSITY INNOVATION, published 2024)

Legend:
Test in all cases: BLI [Cont.) C]
[1] = target: T1, CXCL6_HUMAN (human, UniProt P80162 38-114)
T1 sequence: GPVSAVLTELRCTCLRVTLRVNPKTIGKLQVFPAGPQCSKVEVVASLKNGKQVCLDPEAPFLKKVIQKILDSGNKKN

[2] = target: T2, CXCL2_HUMAN (human, UniProt P19875 35-107)
T2 sequence: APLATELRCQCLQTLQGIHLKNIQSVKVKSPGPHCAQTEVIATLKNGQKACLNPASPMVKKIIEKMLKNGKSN

[3] = target: T3, CXCL13_HUMAN (human, UniProt O43927 23-109)
T3 sequence: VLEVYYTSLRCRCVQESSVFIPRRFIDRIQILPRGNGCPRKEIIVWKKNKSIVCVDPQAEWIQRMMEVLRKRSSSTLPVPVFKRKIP

[4] = target: T4, CXCL10_HUMAN (human, UniProt P02778 22-98)
T4 sequence: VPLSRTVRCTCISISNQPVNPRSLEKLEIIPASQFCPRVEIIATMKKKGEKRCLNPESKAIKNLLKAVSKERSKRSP

[5] = target: T5, CXCL5_HUMAN (human, UniProt P42830 41-114)
T5 sequence: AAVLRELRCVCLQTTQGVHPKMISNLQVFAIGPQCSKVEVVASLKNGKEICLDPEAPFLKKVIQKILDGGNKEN

[6] = target: T6, CXCL14_HUMAN (human, UniProt O95715 35-111)
T6 sequence: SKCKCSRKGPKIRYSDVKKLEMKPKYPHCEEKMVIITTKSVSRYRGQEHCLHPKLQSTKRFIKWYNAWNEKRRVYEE

[7] = target: T7, CXCL11_HUMAN (human, UniProt O14625 22-94)
T7 sequence: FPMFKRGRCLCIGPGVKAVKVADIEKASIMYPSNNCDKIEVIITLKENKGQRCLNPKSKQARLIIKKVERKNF

[8] = target: T8, CXCL4_HUMAN (human, UniProt P02776 32-101)
T8 sequence: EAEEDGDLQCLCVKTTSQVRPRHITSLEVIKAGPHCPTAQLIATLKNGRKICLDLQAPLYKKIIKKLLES

[9] = target: CXCL12_HUMAN (human, UniProt P48061 22-89)
CXCL12_HUMAN, sequence (P48061 22-89 limits assumed): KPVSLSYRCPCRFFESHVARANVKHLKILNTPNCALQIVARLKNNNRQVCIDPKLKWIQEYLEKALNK

Measured: binding result

B1: P1243:G4S:P1156 (designed binder)
chain: RNHTEDNSTEYYDYEEARCACPARHLNNTNGTVLKLLGCHYFCNGTLCTAPDGYPCYNLTAQQVRTLTTYPNTSCAVGVCMKGTCVKNGTMEQCFKTPGGGGSADDDNELFTVQYCGMNCTKDEGGTWTGCTGKKEGCKCYHESGKNYGLCLSTEYTDFSQYGNPSDSEIEAAKPKRSDTLSH
no binding (tested: 300 nM): all assays above
